Results on four substances are retold here after PMC2925043.

Test [1] has as its target Drosophila EGFR extracellular region (s-dEGFR) with C-terminal His tag and AviTag, biotinylated (Drosophila melanogaster) (UniProt P04412). Nature of the test: fluorescent ligand binding assay on plates.
Test [2] concerns the target dimerization-defective s-dEGFR variant (s-dEGFR^dim-arm), biotinylated (Drosophila melanogaster) (UniProt P04412). Kind of test: fluorescent ligand binding assay on plates.
Test [3] has as its target Drosophila EGFR extracellular region lacking domain V (s-dEGFRΔV) (Drosophila melanogaster) (UniProt P04412).
Test [4] concerns the target EGFR (high-affinity site) (Homo sapiens) (UniProt P00533). Conditions: cited from earlier work.
Test [5] deals with EGFR (low-affinity site) (Homo sapiens) (UniProt P00533). Conditions: cited from earlier work.

In test [1], “SpitzEGF labeled with Alexa Fluor-488 (ligand)” yielded a KD of the high-affinity site (fit with two independent classes of site) of 4.7 nM and an equilibrium dissociation constant (Kd) of 49.5 nM. The same substance returned a Kd in test [2] of 920 nM.
For the substance “EGF-like domain of Spitz (SpitzEGF, residues 48-105) (ligand)”, the Kd in test [3] came out at 368 nM.
As to “Spitz_(EGFΔC), variant of SpitzEGF with a C-terminal truncation of six amino acids (ligand)”, in test [3], the Kd was 4370 nM.
EGF (from UniProt P01133): the Kd in test [4] was 0.3 nM; in test [5] it was 2 nM.

As a reminder, the Kd is the equilibrium constant for the complex coming apart.
